Source: US20020131964A1

How the values were obtained:
[1] = molecular target: two chain urokinase (tcuPA) (Homo sapiens (Human)) (UniProt P00749); experiment: cell-based or functional assay
[2] = molecular target: wild type single chain urokinase (scuPA) (Homo sapiens (Human)) (UniProt P00749); experiment: cell-based or functional assay

EC50 of phenylepherine (PE)-induced contraction of rat aortic rings [1]: 0.029 µM
EC50 of phenylepherine (PE)-induced contraction of rat aortic rings [2]: 0.029 µM
Substance: soluble recombinant human urokinase receptor (suPAR) (from UniProt Q03405 23-299)
